For this assay, the target named is T1, Recombinant Human FGFR1 alpha (IIIc) Fc Chimera Protein (Homo sapiens, UniProt P11362).
T1 construct: purchased R&D systems 658-FR-050
Kind of assay: SPR binding affinity of chemically synthesized cyclic peptide to immobilized FGFR. Conditions: SPR binding amount at 10 nmol/L cyclic peptide, 25° C.; chemically synthesized product. The method, then: The binding affinity of the cyclic peptide to FGFR was evaluated using a surface plasmon resonance (SPR) method.
The binding affinity of the chemically synthesized cyclic peptide to FGFR was evaluated by the following procedure.
A CM5 sensor chip (Cytiva, 29149603) was set in Biacore-T200 (manufactured by Cytiva) which is a surface plasmon resonance device, and an HBS-EP buffer (Cytiva, BR100826) was added as a running buffer at a flow rate of 10 μL/min to equilibrate the flow channel. Next, 70 μL of a mixed aqueous solution of 0.2 mol/L 1-(3-dimethylaminopropyl)-3-ethylcarbodiimide (EDC) and 0.05 mol/L N-hydroxysuccinimide (NHS) was added to activate the sensor chip. Then, Recombinant Human FGFR1 alpha (IIIc) Fc Chimera Protein CF (R&D systems, 658-FR-050) prepared at 50 nmol/L in an Acetate 4.5 buffer (Cytiva, BR100350) was added thereto to perform immobilization at about 5000 RU. Thereafter, the blocking treatment was performed with an ethanolamine solution. In addition, in another flow channel of the same sensor chip, blocking treatment was performed immediately after activation without immobilizing FGFR.
A cyclic peptide diluted to 10 nmol/L using HBS-EP was added to each flow channel of the FGFR-immobilized sensor chip produced above at 25° C. for 10 minutes, then HBS-EP was allowed to flow as a running buffer for 30 minutes, and the binding of the cyclic peptide to FGFR was measured. Thereafter, a regeneration treatment of removing the bound cyclic peptide was performed by repeating the flow of a regeneration liquid in which sodium chloride powder was dissolved in Glysine 1.5 (Cytiva, BR100354) to a final concentration of 0.15 mol/L for 1 minute in each flow channel twice. The binding amount of the cyclic peptide was evaluated from the difference between the measured value of Biacore-T200 in the flow channel in which FGFR was immobilized and the measured value of Biacore-T200 in the flow channel in which FGFR was not immobilised, in a case where a 10 nmol/L cyclic peptide was allowed to flow.
The binding amount of the cyclic peptide evaluated above was normalized to the binding amount of the cyclic peptide molecules per one molecule of FGFR using the molecular weights of the cyclic peptide and FGFR, and the binding affinity to FGFR was evaluated according to the following evaluation criteria. The evaluation result preferably satisfies the evaluation criteria A, B, or C.
• A: The binding amount is 0.7 molecules of the cyclic peptide/one molecule of FGFR or more. • B: The binding amount is 0.5 molecules of the cyclic peptide/one molecule of FGFR or more and less than 0.7 molecules of cyclic peptide/one molecule of FGFR. • C: The binding amount is 0.1 molecules of cyclic peptide/one molecule of FGFR or more and less than 0.5 molecules of cyclic peptide/one molecule of FGFR. • D: The binding amount is less than 0.1 molecules of the cyclic peptide/one molecule of FGFR.
For orientation: In SPR one partner is held on a chip, and binding of the other changes the refractive index at the surface.

T1 sequence (P11362 with tags, fused parts or gaps limits assumed): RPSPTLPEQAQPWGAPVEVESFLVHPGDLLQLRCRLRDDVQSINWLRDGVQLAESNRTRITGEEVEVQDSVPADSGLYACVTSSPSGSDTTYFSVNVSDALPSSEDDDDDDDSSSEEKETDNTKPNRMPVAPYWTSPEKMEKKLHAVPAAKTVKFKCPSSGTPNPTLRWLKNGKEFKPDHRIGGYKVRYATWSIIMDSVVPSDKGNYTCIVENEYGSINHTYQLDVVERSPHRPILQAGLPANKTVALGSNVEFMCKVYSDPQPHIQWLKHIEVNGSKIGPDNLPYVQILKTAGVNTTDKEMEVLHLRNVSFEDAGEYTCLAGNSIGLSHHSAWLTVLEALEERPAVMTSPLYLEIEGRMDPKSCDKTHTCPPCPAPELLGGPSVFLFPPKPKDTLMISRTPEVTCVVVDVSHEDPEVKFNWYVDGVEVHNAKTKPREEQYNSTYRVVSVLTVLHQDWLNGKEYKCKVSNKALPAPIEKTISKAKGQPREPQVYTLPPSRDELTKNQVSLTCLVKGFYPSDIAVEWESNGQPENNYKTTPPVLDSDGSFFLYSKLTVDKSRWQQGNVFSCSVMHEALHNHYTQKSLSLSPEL

With “335 (ACVWTFDRHAQEISQALHKVKKK; not fully specified; Description of Artificial Sequence: Cyclic peptide) [compound 335]”, the “Evaluation result of binding affinity to FGFR” value is given as “A (The binding amount is 0.7 molecules of the cyclic peptide/one molecule of FGFR or more.)”.

For the origin of these results see patent US20260008817A1, “CYCLIC PEPTIDE OR SALT THEREOF, AND USES THEREOF” (FUJIFILM Corporation, priority 2023, published 2026).
